{"source": "patent US20200340060A1", "about": "“COMPOSITIONS AND METHODS FOR IDENTIFYING AND TREATING LIVER DISEASES AND MONITORING TREATMENT OUTCOMES” (Gilead Sciences, Inc., priority 2017, published 2020)", "molecules": {"B1": {"name": "simtuzumab (antibody, chains of the INN, looked up, V domains shown)", "VH": "QVQLVQSGAEVKKPGASVKVSCKASGYAFTYYLIEWVRQAPGQGLEWIGVINPGSGGTNYNEKFKGRATITADKSTSTAYMELSSLRSEDTAVYFCARNWMNFDYWGQGTTVTVSS", "VL": "DIVMTQTPLSLSVTPGQPASISCRSSKSLLHSNGNTYLYWFLQKPGQSPQFLIYRMSNLASGVPDRFSGSGSGTDFTLKISRVEAEDVGVYYCMQHLEYPYTFGGGTKVEIK"}}, "test_system": "liver fibrosis in NASH subjects", "experiment": "Simtuzumab clinical studies (SIM 0105/0106) in NASH, CRN fibrosis stage change at week 48", "format": "in vivo, human", "conditions": "SIM study samples"}
{"molecule": "B1", "values": [{"measurement": "efficacy on fibrosis stage change", "result": "lack of efficacy"}]}
